Substitutions are numbered along the chain they refer to.
T1: Activin B (UniProt P09529 293-407)
T1 sequence (looked up): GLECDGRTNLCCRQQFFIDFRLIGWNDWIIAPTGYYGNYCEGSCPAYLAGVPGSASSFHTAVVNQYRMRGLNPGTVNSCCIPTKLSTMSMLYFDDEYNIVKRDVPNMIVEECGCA

T2: BMP9 (UniProt Q9UK05 320-429)
T2 sequence (looked up): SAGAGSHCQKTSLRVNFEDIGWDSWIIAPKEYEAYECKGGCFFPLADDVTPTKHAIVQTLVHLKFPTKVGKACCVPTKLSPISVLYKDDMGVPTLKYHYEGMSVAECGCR

T3: BMP10 (UniProt O95393 317-424)
T3 sequence (looked up): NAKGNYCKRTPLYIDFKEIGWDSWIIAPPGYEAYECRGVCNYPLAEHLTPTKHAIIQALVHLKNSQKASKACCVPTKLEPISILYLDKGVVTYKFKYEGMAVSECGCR

T4: GDF15 Fc (UniProt Q99988 197-308, limits assumed)
T4 construct: species not given; not shown: Fc part of the fusion
T4 sequence (looked up): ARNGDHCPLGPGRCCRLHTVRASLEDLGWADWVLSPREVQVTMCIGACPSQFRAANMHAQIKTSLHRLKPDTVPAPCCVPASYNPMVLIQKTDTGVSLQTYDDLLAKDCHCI

T5: human GDNF (human, UniProt P39905 78-211, limits assumed)
T5 sequence (looked up): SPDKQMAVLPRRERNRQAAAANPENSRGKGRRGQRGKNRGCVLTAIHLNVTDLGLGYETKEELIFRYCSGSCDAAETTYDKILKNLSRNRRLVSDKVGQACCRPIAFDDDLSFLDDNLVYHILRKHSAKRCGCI

T6: human GDF10 (human, UniProt P55107 369-478)
T6 sequence (looked up): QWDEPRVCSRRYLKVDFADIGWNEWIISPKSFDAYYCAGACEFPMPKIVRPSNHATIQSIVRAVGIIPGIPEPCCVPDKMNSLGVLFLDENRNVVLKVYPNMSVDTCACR

B1: Antibody O (Clone O), IgG (antibody, V domains shown)
VH: QVQLVQSGAEVKKPGSSVKVSCKASGGTFSNYDINWVRQAPGQGLEWMGGIIPVFGTAAYAQKFQGRVTITADESTSTAYMELSSLRSEDTAVYYCAREARDGYRYAFQHWGQGTLVTVSS
VL: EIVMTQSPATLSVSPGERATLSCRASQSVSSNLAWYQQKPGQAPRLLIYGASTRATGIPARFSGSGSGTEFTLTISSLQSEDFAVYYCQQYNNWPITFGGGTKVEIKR
notes: IgG
B2: Antibody K (Clone K), IgG (antibody, V domains shown)
VH: QVQLVQSGAEVKKPGSSVKVSCKASGGTSSSYAISWVRQAPGQGLEWMGYIIPAFGTANYAQKFQGRVTITADESTSTAYMELSSLRSEDTAVYYCARPVRTYPLGKYFYHWGQGTLVTVSS
VL: EIVLTQSPATLSLSPGERATLSCRASQSVSSYLAWYQQKPGQAPRLLIYDASNRATGIPARFSGSGSGTDFTLTISSLEPEDFAVYYCQQDSIFPPYTFGGGTKVEIKR
notes: IgG
B3: Antibody G (Clone G), IgG (antibody, V domains shown)
VH: QVQLVQSGAEVKKPGASVKVSCKASGYTFTSYYIHWVRQAPGQGLEWMGAIYAYSGDTNYAQKLQGRVTMTTDTSTSTAYMELRSLRSDDTAVYYCARARDIAAAGLGAFDYWGQGTLVTVSS
VL: EIVLTQSPGTLSLSPGERATLSCRASQSVRSSYLAWYQQKPGQAPRLLIYGASSRATGIPDRFSGSGSGTDFTLTISRLEPEDFAVYYCQQYSNYPRTFGGGTKVEIKR
notes: IgG
B4: Antibody I (Clone I), IgG (antibody, V domains shown)
VH: QVQLVQSGAEVKKPGSSVKVSCKASGGTFSNYAISWVRQAPGQGLEWMGYIIPFFGTANYAQKFQGRVTITADESTSTAYMELSSLRSEDTAVYYCARGGSGYSTSWGSSLYWGQGTLVTVSS
VL: B3 VL with R30S, S54Y, Q90L, Y92S, S93G, N94V, Y95F, R97Y
notes: IgG
B5: Antibody Q (Clone Q), IgG (antibody, V domains shown)
VH: QVQLVQSGAEVKKPGSSVKVSCKASGGSFSPYTWSWVRQAPGQGLEWMGGIIPISGTANTAQKFQGRVTITADESTSTAYMELSSLRSEDTAVYYCARGGPLSGWRASYYYWGQGTLVTVSS
VL: not shown
notes: IgG
B6: Antibody R (Clone R), IgG (antibody, V domains shown)
VH: B5 VH with W34I, P53L, I54T, T60Y
VL: not shown
notes: IgG

target: T1, Activin B; assay: BLI Octet; IgG, avid

Row | binding result | Binder
1 | no binding (tested: 100 nM) | B1
2 | no binding (tested: 100 nM) | B2
3 | no binding (tested: 100 nM) | B3
4 | no binding (tested: 100 nM) | B4
5 | no binding (tested: 100 nM) | B5
6 | no binding (tested: 100 nM) | B6

target: T2, BMP9; assay: BLI Octet; IgG, avid

Row | binding result | Binder
7 | no binding (tested: 100 nM) | B1
8 | no binding (tested: 100 nM) | B2
9 | no binding (tested: 100 nM) | B3
10 | no binding (tested: 100 nM) | B4
11 | no binding (tested: 100 nM) | B5
12 | no binding (tested: 100 nM) | B6

target: T3, BMP10; assay: BLI Octet; IgG, avid

Row | binding result | Binder
13 | no binding (tested: 100 nM) | B1
14 | no binding (tested: 100 nM) | B2
15 | no binding (tested: 100 nM) | B3
16 | no binding (tested: 100 nM) | B4
17 | no binding (tested: 100 nM) | B5
18 | no binding (tested: 100 nM) | B6

target: T4, GDF15 Fc; assay: BLI Octet; IgG, avid

Row | binding result | Binder
19 | no binding (tested: 100 nM) | B1
20 | no binding (tested: 100 nM) | B2
21 | no binding (tested: 100 nM) | B3
22 | no binding (tested: 100 nM) | B4
23 | no binding (tested: 100 nM) | B5
24 | no binding (tested: 100 nM) | B6

target: T5, human GDNF; assay: BLI Octet; IgG, avid

Row | binding result | Binder
25 | no binding (tested: 100 nM) | B1
26 | no binding (tested: 100 nM) | B2
27 | no binding (tested: 100 nM) | B3
28 | no binding (tested: 100 nM) | B4
29 | no binding (tested: 100 nM) | B5
30 | no binding (tested: 100 nM) | B6

target: human GDF8 (human, UniProt O14793 267-375); assay: BLI Octet; IgG, avid

Row | binding result | Binder
31 | no binding (tested: 100 nM) | B1
32 | no binding (tested: 100 nM) | B2
33 | no binding (tested: 100 nM) | B3
34 | no binding (tested: 100 nM) | B4
35 | no binding (tested: 100 nM) | B5
36 | no binding (tested: 100 nM) | B6

target: T6, human GDF10; assay: BLI Octet; IgG, avid

Row | binding result | Binder
37 | no binding (tested: 100 nM) | B1
38 | no binding (tested: 100 nM) | B2
39 | no binding (tested: 100 nM) | B3
40 | no binding (tested: 100 nM) | B4
41 | no binding (tested: 100 nM) | B5
42 | no binding (tested: 100 nM) | B6

target: human GDF11 (human, UniProt O95390 299-407); assay: BLI Octet; IgG, avid
Sequence (O95390 299-407 limits assumed): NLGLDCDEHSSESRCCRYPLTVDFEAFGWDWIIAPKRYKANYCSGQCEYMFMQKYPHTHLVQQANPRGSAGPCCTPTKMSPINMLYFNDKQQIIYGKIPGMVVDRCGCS

Row | binding result | Binder
43 | no binding (tested: 100 nM) | B1
44 | no binding (tested: 100 nM) | B2
45 | no binding (tested: 100 nM) | B3
46 | no binding (tested: 100 nM) | B4
47 | no binding (tested: 100 nM) | B5
48 | no binding (tested: 100 nM) | B6
